Drawing on patent US7329410, this text covers Binding Affinity to Mouse MHC Class I and Binding Affinity to Mouse MHC Class I (percent increase of D^b or K^b on RMA-S cells) for 20 molecules.

One assay addresses Mouse MHC Class I (mouse B6 class I antigens; D^b or K^b molecules on the surface of RMA-S cells) (mouse). Kind of assay: binding of 9mer peptide to mouse B6 (H-2^b) class I antigens; RMA-S cell assay as for Table XLVII.
Molecule NAPYLPSCL [WT1 peptide P130-138 …] showed a Binding Affinity to Mouse MHC Class I of 79%.

As to MFPNAPYLP [WT1 peptide P127-135 …], the Binding Affinity to Mouse MHC Class I was determined as 2%. Turning to APYLPSCLE [WT1 peptide P131-139 …], the Binding Affinity to Mouse MHC Class I was 1%. SQASSGQAR [WT1 peptide P118-126 …] returned a Binding Affinity to Mouse MHC Class I of 2%. In turn, FPNAPYLPS [WT1 peptide P128-136 …] yielded a Binding Affinity to Mouse MHC Class I of 1%.

With PSQASSGQA [WT1 peptide P117-125 …], the Binding Affinity to Mouse MHC Class I came to 2%. Same read-out and setting: the figure for QASSGQARM [WT1 peptide P119-127 …] is 2%; for PNAPYLPSC [WT1 peptide P129-137 …] it is 1%; for ARMFPNAPY [WT1 peptide P125-133 …] it is 1%. Molecule SSGQARMFP [WT1 peptide P121-129 …] had a Binding Affinity to Mouse MHC Class I of 1%.

As to ASSGQARMF [WT1 peptide P120-128 …], the Binding Affinity to Mouse MHC Class I was 1%. Molecule QARMFPNAP [WT1 peptide P124-132 …] gave a Binding Affinity to Mouse MHC Class I of 1%.

The next assay shares this target. Kind of assay: RMA-S cells incubated with peptide 25 ug/ml, stained with FITC anti-D^b or anti-K^b, flow cytometry; increase in MFI over medium alone. Background: In flow cytometry, cells or beads pass a laser one at a time.
In turn, YSSDNLYQM [WT1 peptide p221-229 …] had a Binding Affinity to Mouse MHC Class I (percent increase of D^b or K^b on RMA-S cells) of 0.8%. The molecule NQMNLGATL [WT1 peptide p239-247 …] came in with a Binding Affinity to Mouse MHC Class I (percent increase of D^b or K^b on RMA-S cells) of 1%. SCLESQPAI [WT1 peptide human p136-144 …]: the Binding Affinity to Mouse MHC Class I (percent increase of D^b or K^b on RMA-S cells) was found to be 52%. Consider GCNKRYFKL [WT1 peptide p329-337 …], for which the Binding Affinity to Mouse MHC Class I (percent increase of D^b or K^b on RMA-S cells) is 1.2%.

Consider CMTWNQMNL [WT1 peptide p235-243 …], for which the Binding Affinity to Mouse MHC Class I (percent increase of D^b or K^b on RMA-S cells) worked out at 33.6%. Still for that read-out and setting: as for QMTSQLECM [WT1 peptide p228-236 …], the figure is 1.2%; as for ALLPAVPSL [WT1 peptide human p10-18 …], 2.2%. Regarding NLYQMTSQL [WT1 peptide p225-233 …], the Binding Affinity to Mouse MHC Class I (percent increase of D^b or K^b on RMA-S cells) was determined as 5.8%.
